Legend:
[1] = biological target: GST::bov-rPrP25-242 (rPrPc) (Bos taurus, UniProt P10279 P10279:25-242); assay: EMSA; settings: tags: GST fusion, insect cells/baculovirus; label: 32P
[2] = biological target: GST::bov-rPrP93-242 (rPrP27-30 + 1 octarepeat) (Bos taurus, UniProt P10279 P10279:93-242); assay: EMSA; settings: tags: GST fusion, insect cells/baculovirus; label: 32P

| Binder | binding result [1] | binding result [2] |
| --- | --- | --- |
| Ap1 motif I 60mer (ssRNA) RNA: GCAAUGCGUUGUGUGGGAAUUUGAGGGACGAUGGGGAAGUGGGGACGAAUGACUCAUUGC | binds | no binding |
| Ap2 motif II (ssRNA) RNA: GGAGCUCAGCCUUCACUGCUACCUUAGAGUAGGAGCGGGACGAGGGGUUGUUGGGACGUGGGUAUGAUCCAUACAUUAGGAAGCUGGUGAGCUGGCACCACGGUCGGAUCCAC | binds | no binding |
